Results as given in patent WO2009041734A1 (dated 2009).

How the values were obtained:
[1] = target: T1, human thrombopoietin receptor (human c-Mpl) (human, UniProt P40238 26-635); test: cell-based or functional assay
T1 sequence (looked up): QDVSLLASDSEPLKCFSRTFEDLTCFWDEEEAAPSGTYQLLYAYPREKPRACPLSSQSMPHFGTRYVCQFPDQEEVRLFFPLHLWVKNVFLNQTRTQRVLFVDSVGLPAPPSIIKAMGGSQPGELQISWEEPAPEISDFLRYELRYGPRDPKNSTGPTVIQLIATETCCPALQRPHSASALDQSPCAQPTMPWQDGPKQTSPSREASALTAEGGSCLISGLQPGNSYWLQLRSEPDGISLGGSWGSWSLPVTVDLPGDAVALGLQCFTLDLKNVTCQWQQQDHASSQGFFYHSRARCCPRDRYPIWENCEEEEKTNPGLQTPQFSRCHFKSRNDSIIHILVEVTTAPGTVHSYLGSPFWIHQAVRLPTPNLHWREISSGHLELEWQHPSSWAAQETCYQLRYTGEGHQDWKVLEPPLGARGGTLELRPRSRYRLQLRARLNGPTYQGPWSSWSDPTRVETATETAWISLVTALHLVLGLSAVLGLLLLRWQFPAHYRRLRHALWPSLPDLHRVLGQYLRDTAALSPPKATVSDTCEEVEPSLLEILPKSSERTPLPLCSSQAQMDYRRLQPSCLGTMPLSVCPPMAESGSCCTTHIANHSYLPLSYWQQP

[2] = target: T1, human thrombopoietin receptor (human …); test: flow cytometry on FM3A-hMpl cells, antibody at 1, 0.1, 0.01 ug/mL

Binder	UT7/TPO (Max), maximum activity relative to PEG-rHuMGDF [1] [%]	agonist activity relative to 7-10G4344uhm, UT-7/TPO cell proliferation assay [1]	binding activity relative to 7-10G4344uhm [2]
anti-human c-Mpl agonist antibody 7-10 (IgG1) (antibody, V domains shown) VH: EVQLVESGGGLVQPGRSLRLSCAASGFTFDDYAMHWVRQAPGKGLEWVSGISWNSGSIGYADSVKGRFTISRDNAKNSLYLQMNSLRAEDTALYYCAKNLWFGEFRYWYFDLWGRGTLVTVSS VL: AIQLTQSPSSLSASVGDRVTITCRASQGISSALAWYQQKPGKAPKLLIYDASSLESGVPSRFSGSGSGTDFTLTISSLQPEDFATYYCQQFNSYPLTFGGGTKVEIK	> 90	–	–
7-10G4344uhm light chain mutant 7-10VL_Y94F (antibody, V domains shown) VH: EVQLVESGGGLVQPGRSLRLSCAASGFTFDDYAMHWVRQAPGKGLEWVSGISWNSGSIGYADSVKGRFTISRDNAKNSLYLQMNSLRAEDTALYYCAKNLWFGEFRYWYFDLWGRGTLVTVSS VL: AIQLTQSPSSLSASVGDRVTITCRASQGISSALAWYQQKPGKAPKLLIYDASSLESGVPSRFSGSGSGTDFTLTISSLQPEDFATYYCQQFNSFPLTFGGGTKVEIK	–	~0.1 fold of 7-10G4344uhm	~0.1 fold of 7-10G4344uhm
anti-human c-Mpl agonist antibody 4-49 (IgG1) (antibody, V domains shown) VH: EEQLVESGGGLVQPGRSLRLSCTASGFTFDDYAMYWVRQVPGKGLEWVSGISWNSGSIGYADSVKGRFTVSRDNAKNSLYLQMNSLRAEDTALYYCAKALWFGEFPHYYGMDVWGQGTTVTVSS VL: AIQLTQSPSSLSASVGDRVTITCRASQGISSTLAWYQQKPGKAPKLLIYDASSLESGVPSRFSGSGSGTDFTLTISSLQPEDFATYYCQQFNSYPYTFGQGTKLEIKR	> 80	–	–
anti-human c-Mpl agonist antibody 6-4-50 (IgG1) (antibody, V domains shown) VH: EVQLVESGGGLVQPGRSLRLSCATSGFTFDNYAMYWVRQAPGKGLEWVSGISWNSGDIGYADSVKGRFTISRDNAKNSLYLQMNSLRAEDTALYYCARDAGFGEFHYGLDVWGQGTTVTVSS VL: AIQLTQSPSSLSASVGDRVTITCRASQGISSALAWYQQKPGKVPKLLIYDASSLESGVPSRFSGSGSGTDFTLTISSLQPEDFATYYCQQFNSYPWTFGQGTKVEIKR	> 80	–	–
anti-human c-Mpl agonist antibody 6-5-2 (IgG1) (antibody, V domains shown) VH: EVQLVECGGGLVQPGRSLRLSCAASGFTFDDYAMHWVRQAPGKGLEWVSGISWNSGSIGYADSVKGRFTISRDNAKNSLYLQMNSLRAEDTALYYCAKPIWFGEWGNYYGMDVWGQGTTVTVSS VL: not shown	> 50	–	–
